Data on three molecules can be found in PMC7261492, “ISCU interacts with NFU1, and ISCU[4Fe-4S] transfers its Fe-S cluster to NFU1 leading to the production of holo-NFU1” (Journal of structural biology, 2020).

A word on the stoichiometry N: it is the number of molecules, sites or subunits per partner or assembly. Usually Kd stands for the equilibrium constant for the complex coming apart.

For series [1], the target named is human apo-NFU1 (human) (UniProt Q9UMS0). The series can be described thus: SAXS; apo-NFU1:ISCU complex isolated by SEC, dialysed against HNT buffer, 2-8 mg/mL, 298 K; molecular mass by the Vc approach.
For series [2] the target is unchanged. The series can be described thus: ITC; Nano ITC, 25 °C, HNT buffer; syringe 0.8 mM ISCU, cell (169 μL) 0.03 mM NFU1; 20 injections of 2.5 μL; fitted to a 1:1 binding mode. Background: ITC needs no label: the signal is the heat of the interaction.
Series [3] deals with the molecule itself. In words: SEC; anaerobic; mixture of [U-15N]-apo-NFU1 and ISCU[4Fe-4S] incubated 30 min, HiLoad Superdex 200 PG, HNT buffer, 1 mL/min; fractions analysed by SDS-PAGE. (SEC sorts molecules by how far they enter the pores of the column.)
The target of series [4] is T1, human ISCU (human), Q9H1K1.
T1 chain: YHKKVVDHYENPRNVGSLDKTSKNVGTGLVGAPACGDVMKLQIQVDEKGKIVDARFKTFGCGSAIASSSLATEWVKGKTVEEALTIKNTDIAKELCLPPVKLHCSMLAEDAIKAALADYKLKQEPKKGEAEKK
The description is as above. The note with it: remark: other sources report otherwise.

Molecule “human ISCU (from UniProt Q9H1K1 35-167) (natural protein)” registered a stoichiometry N with human apo-NFU1 (human) [1] of 1. Moreover, the dissociation constant (Kd) with human apo-NFU1 (human) [2] was determined as 1100 nM.

B1: human holo-NFU1 (natural protein, UniProt Q9UMS0 10-254, looked up)
chain: GAAAVAAGLRRRFCHMLKNPYTIKKQPLHQFVQRPLFPLPAAFYHPVRYMFIQTQDTPNPNSLKFIPGKPVLETRTMDFPTPAAAFRSPLARQLFRIEGVKSVFFGPDFITVTKENEELDWNLLKPDIYATIMDFFASGLPLVTEETPSGEAGSEEDDEVVAMIKELLDTRIRPTVQEDGGDVIYKGFEDGIVQLKLQGSCTSCPSSIITLKNGIQNMLQFYIPEVEGVEQVMDDESDEKEANSP
modifications: [4Fe-4S] cluster bound by C195 and C198; two NFU1 chains supply the four cysteine ligands of one cluster
notes: NFU1, human, with both the N-terminal domain (NTD) and the C-terminal domain (CTD); Same chain as m2 with the [4Fe-4S] cluster; trimer of cluster-linked dimers (hexamer, 160 kDa); also called NFU1[4Fe-4S]; hexameric holo-NFU1; source: prepared as described earlier (Cai et al., 2016); in the anaerobic SEC formed by adding ISCU[4Fe-4S] to [U-15N]-apo-NFU1
For B1, the “stoichiometry N” value in series [3] is 6.

B2: human ISCU, Q9H1K1 35-167 (natural protein)
chain: T1 chain
In the case of B2, the stoichiometry N in series [4] came out at 2.
